Earlier results, collected in article PMC7662479.
pKd: −log10 of the molar value.

Biological target: Angiopoietin-2 (Homo sapiens) (UniProt O15123)
Sequence of UniProt O15123 (O15123 19-496): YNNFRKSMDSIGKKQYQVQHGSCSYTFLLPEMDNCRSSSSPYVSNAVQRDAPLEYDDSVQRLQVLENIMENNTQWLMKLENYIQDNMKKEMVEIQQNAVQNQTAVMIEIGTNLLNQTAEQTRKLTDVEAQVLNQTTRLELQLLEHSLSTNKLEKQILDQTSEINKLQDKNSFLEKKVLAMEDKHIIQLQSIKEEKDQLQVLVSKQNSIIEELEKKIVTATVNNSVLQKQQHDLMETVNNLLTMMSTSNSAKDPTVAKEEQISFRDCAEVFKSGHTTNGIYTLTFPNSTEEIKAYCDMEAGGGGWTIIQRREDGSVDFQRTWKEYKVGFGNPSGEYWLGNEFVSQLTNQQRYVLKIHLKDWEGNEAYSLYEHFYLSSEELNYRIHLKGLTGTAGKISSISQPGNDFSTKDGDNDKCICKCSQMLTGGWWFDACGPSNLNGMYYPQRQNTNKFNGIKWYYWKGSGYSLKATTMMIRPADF

nesvacumab
pKd: 10.62
